B1: mouse monoclonal antibody ACI-01-Ab7C2 (antibody, V domains shown)
VH: EVQLVESGGGLVQPGGSLKLSCAASGFTFSSYGMSWVRQTPDKRLELVASINSNGGSTYYPDSVKGRFTISRDNAKNTLYLQMSSLKSEDTAMYYCASGDYWGQGSTLTVSS
VL: DVVMTQTPLSLPVSLGDQASISCRSSQSLVYSNGDTYLHWYLQKPGQSPKLLIYKVSNRFSGVPDRFSGSGSGTDFTLKISRVEAEDLGVYFCSQSTHVPWTFGGGTKLEIK
notes: Mouse IgG2b/kappa from hybridoma FP-12H3-C2 (DSM ACC2750); also called mC2; Mouse ACI-01-Ab-7-C2
B2: C2HuVH4/HuVK2 humanized antibody (antibody, human IgG4 S228P, kappa, V domains shown)
VH: EVQLVESGGGLVQPGGSLRLSCAASGFTFSSYGMSWVRQAPGKGLELVASINSNGGSTYYPDSVKGRFTISRDNAKNSLYLQMNSLRAEDTAVYYCASGDYWGQGTTVTVSS
VL: DIVMTQSPLSLPVTPGEPASISCRSSQSLVYSNGDTYLHWYLQKPGQSPQLLIYKVSNRFSGVPDRFSGSGSGTDFTLKISRVEAEDVGVYFCSQSTHVPWTFGQGTKVEIKR
notes: also called C2HuVHAF4 with C2HuVK2

Key:
[1] = target: T1, soluble polymeric amyloid beta (UniProt P05067 672-713); assay: ELISA on plates coated with the amyloid preparation (55 µg/ml), AP-labelled anti-mouse IgG
T1 construct: also called Oligomer; polymeric soluble amyloid
T1 sequence (P05067 672-713): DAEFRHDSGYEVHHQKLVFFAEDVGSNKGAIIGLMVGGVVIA
Method: In order to evaluate the specificity of mC2 to different stages of polymerized amyloid protein, monomeric, polymeric soluble and fibrillic amyloid, an ELISA coated with these different stages of polymeric beta-amyloid was performed (FIG. 9). Monomers were prepared according to a modified method published by (Klein, 2002), soluble polymeric amyloid beta according to (Barghorn et al., 2005), whereas fibers were performed by incubation of amyloid (Bachem, Switzerland) with a final concentration of 1 μg/μl in Tris/HCl pH 7.4 at 37° C. for 5 days followed by a centrifugation step (10,000 rpm for 5 minutes). Then amyloid polymers were coated on an ELISA plates with a final concentration of 55 μg/ml and binding affinity ELISA by using an anti-mouse IgG monoclonal antibody (Jackson) labelled with alkaline phosphate was performed.

[2] = target: Amyloid Beta (antigen of the Amyloid Beta ELISA) (UniProt P05067 672-713, limits assumed); assay: Amyloid Beta ELISA, antibody purified from NS0 cells
Amyloid Beta (antigen of the Amyloid Beta ELISA), sequence (P05067 672-713 limits assumed): as the sequence (P05067 672-713) above

| Binder | EC50 (read off the curve) [1] [µg/mL] | EC50 (read off the curve) [2] [ng/well] |
| --- | --- | --- |
| B1 | ~0.4 |  |
| B2 |  | ~4 |

Source: US20100080800A1 (AC IMMUNE S A, published 2010)
